The values below come from article PMC5443773 (Scientific Reports, 2017).

The series deals with the molecule itself. Nature of the series: crystal structure.

Broadly, the stoichiometry N is a count of units in the complex or per binding partner.

B1: El Tor cholera toxin B-pentamer (natural protein)
chain: TPQNITDLCAEYHNTQIYTLNDKIFSYTESLAGKREMAIITFKNGAIFQVEVPGSQHIDSQKKAIERMKDTLRIAYLTEAKVEKLCVWNNKTPHAIAAISMAN
On to B1, for which the “stoichiometry N” value came out at 5.
